Results as given in publication PMC7076015 (2020).

B1: Flag-myc-hnRNP R (wild type) [not stated] / HA-KPNA7 [human] (parent complex)
chain 1: MANQVNGNAVQLKEEEEPMDTSSVTHTEHYKTLIEAGLPQKVAERLDEIFQTGLVAYVDLDERAIDALREFNEEGALSVLQQFKESDLSHVQNKSAFLCGVMKTYRQREKQGSKVQESTKGPDEAKIKALLERTGYTLDVTTGQRKYGGPPPDSVYSGVQPGIGTEVFVGKIPRDLYEDELVPLFEKAGPIWDLRLMMDPLSGQNRGYAFITFCGKEAAQEAVKLCDSYEIRPGKHLGVCISVANNRLFVGSIPKNKTKENILEEFSKVTEGLVDVILYHQPDDKKKNRGFCFLEYEDHKSAAQARRRLMSGKVKVWGNVVTVEWADPVEEPDPEVMAKVKVLFVRNLATTVTEEILEKSFSEFGKLERVKKLKDYAFVHFEDRGAAVKAMDEMNGKEIEGEEIEIVLAKPPDKKRKERQAARQASRSTAYEDYYYHPPPRMPPPIRGRGRGGGRGGYGYPPDYYGYEDYYDDYYGYDYHDYRGGYEDPYYGYDDGYAVRGRGGGRGGRGAPPPPRGRGAPPPRGRAGYSQRGAPLGPPRGSRGGRGGPAQQQRGRGSRGSRGNRGGNVGGKRKADGYNQPDSKRRQTNNQQNWGSQPIAQQPLQQGGDYSGNYGYNNDNQEFYQDTYGQQWK
chain 2: not shown

Variants of: B1
Test: co-immunoprecipitation (HA-IP, Flag western blot quantified); HEK293T(HA-KPNA7) cell extracts; input 2%, IP 30%; parent: 1

ratio to parent	Variant
0.43	chain 1 K414A, chain 1 K415A, chain 1 R416A
0.21	chain 1 K572A, chain 1 R573A, chain 1 K574A
0.2	chain 1 K584A, chain 1 R585A, chain 1 R586A
